Measurements as given in US20230105029A1 (CHIA TAI TIANQING PHARMACEUTICAL GROUP, published 2023).
Where “and” joins values, the source holds several entries; their conditions need not be identical. Identical values can stand only once. Like-named read-outs stand apart in the source and are kept apart here.

B1: mouse antibody B8G11F2B7G5E8 (antibody, V domains shown)
VH: EVQLQQSGADLVRPGASVKLSCTASGFNIKDTYMHWVKQRPEQGLEWVGRIDPTNGYTIYASKFQGKATITADTSSNTAYMQLSSLTSGDTAVYHCVSRRPWFAYWGQGTLVTVSA
VL: DILMTQTPLSLPVSLGAQASISCRSSQSIVHSNGNTYLEWYLQKPGQSPKLLIYKVTNRFSGVPDRFSGSGSGTDFTLKISRVEAEDLGIYYCFQGSHVPYTFGGGTKLEIK
notes: Mouse hybridoma mAb; also called Mouse B8G11F2B7G5E8; mAb B8G11F2B7G5E8
B2: chimeric antibody B8G11F2B7G5E8 (antibody, human IgG4 S228P, kappa, V domains shown)
VH: B1 VH
VL: DILMTQTPLSLPVSLGAQASISCRSSQSIVHSNGNTYLEWYLQKPGQSPKLLIYKVTNRFSGVPDRFSGSGSGTDFTLKISRVEAEDLGIYYCFQGSHVPYTFGGGTKLEIKR
notes: Mouse variable domains on human IgG4/kappa; also called Chimeric B8G11F2B7G5E8; chB8G11F2B7G5E8
B3: chimeric antibody C2C1A1A1 (antibody, human IgG4 S228P, kappa, V domains shown)
VH: EVQLVESGGGLVQPGGSLKLSCAASGFTFSTYGMSWVRQTPDKRLELVATINSNGGSTSYPDSVKGRFTISRDNAKNTLYLQMSSLKSEDTAMFYCARFFRFRNAMDYWGQGTSVTVSS
VL: DIQMTQSPASLSASVGETVTITCRTSENIYSYLAWYQQKQGKSPQFLVYNAKTLAEGVPSRFSGSGSGTQFSLNINSLQSEDFGSYYCQHYYGPPTWTFGGGTKLEIKR
notes: Mouse variable domains on human IgG4/kappa; also called Chimeric C2C1A1A1; chC2C1A1A1

Experiments:
[1] = target: T1, recombinant human IL4Rα-his protein (in house made) (human, UniProt P24394 26-232, limits assumed); assay: capture ELISA: antibody captured on anti-IgG Fc plate, biotin human IL4Rα-his detected
T1 construct: also called Human IL4Ra-his

[2] = target: T1, recombinant human IL4Rα-his protein (in …); assay: competitive ELISA: antibody mixed with biotin human IL4Rα-his, competitor plate-coated Benchmark
[3] = target: T1, recombinant human IL4Rα-his protein (in …); assay: SPR (Biacore), antibody captured, IL4Rα-his flowed
[4] = target: T1, recombinant human IL4Rα-his protein (in …); assay: capture ELISA: antibody captured on anti-IgG Fc plate, biotin human IL4Rα-his detected; remark: listed apart in the source
[5] = target: T2, cynomolgus monkey IL4Rα-his protein (cynomolgus monkey, UniProt A0A2K5V580 33-239); assay: indirect ELISA on coated cynomolgus IL4Rα-his
T2 construct: Bought protein; also called Cynomolgus IL4Rα; Cyno-IL4Rα-his; not shown: his tag

[6] = target: T1, recombinant human IL4Rα-his protein (in …); assay: competitive ELISA: antibody mixed with biotin human IL4Rα-his, competitor plate-coated Benchmark; remark: listed apart in the source
[7] = target: T3, human IL4Rα expressed on 293F-IL4Rα cells (human, UniProt P24394 26-825); assay: flow cytometry on 293F-IL4Rα cells, blocked ligand biotin human IL4
T3 construct: whole, on cells; also called cell surface human IL4Rα

[8] = target: T1, recombinant human IL4Rα-his protein (in …); assay: competitive ELISA: coated human IL4Rα-his, blocked ligand biotin human IL4
[9] = target: T3, human IL4Rα expressed on 293F-IL4Rα …; assay: flow cytometry on 293F-IL4Rα cells
[10] = target: T1, recombinant human IL4Rα-his protein (in …); assay: SPR (Biacore), antibody captured, IL4Rα-his flowed; remark: listed apart in the source

Binder | EC50 [1] | IC50 [2] | Kd [3] | koff [3] | kon [3] | EC50 [4] | EC50 [5] | IC50 [6] | IC50 [7] | IC50 [8] | EC50 [9] | kon [10]
B1 | 0.213 nM |  |  |  |  |  |  |  |  |  |  | 
B2 | 0.319 nM | 1.52 nM | 3.68 nM and 2.69 nM | 0.00112 s⁻¹ and 0.00143 s⁻¹ | 306000 M⁻¹ s⁻¹ and 529000 M⁻¹ s⁻¹ |  |  |  |  |  |  | 
B3 |  |  |  |  |  | 0.0541 nM | 0.603 nM | 0.172 nM | 0.482 nM | 2.46 nM | 0.326 nM | 329000 M⁻¹ s⁻¹ and 364000 M⁻¹ s⁻¹
